Assay results reported in US20090031456A1 (MICHIGAN STATE UNIVERSITY, published 2009).

Molecular target: AtMIN7-HA (Arabidopsis thaliana, UniProt F4IXW2 1-1739)
Assay: transient co-expression in N. benthamiana leaves, pull-down and immunoblot

Chain of AtMIN7-HA (F4IXW2 other isoform, or with tags, fused parts or gaps limits assumed): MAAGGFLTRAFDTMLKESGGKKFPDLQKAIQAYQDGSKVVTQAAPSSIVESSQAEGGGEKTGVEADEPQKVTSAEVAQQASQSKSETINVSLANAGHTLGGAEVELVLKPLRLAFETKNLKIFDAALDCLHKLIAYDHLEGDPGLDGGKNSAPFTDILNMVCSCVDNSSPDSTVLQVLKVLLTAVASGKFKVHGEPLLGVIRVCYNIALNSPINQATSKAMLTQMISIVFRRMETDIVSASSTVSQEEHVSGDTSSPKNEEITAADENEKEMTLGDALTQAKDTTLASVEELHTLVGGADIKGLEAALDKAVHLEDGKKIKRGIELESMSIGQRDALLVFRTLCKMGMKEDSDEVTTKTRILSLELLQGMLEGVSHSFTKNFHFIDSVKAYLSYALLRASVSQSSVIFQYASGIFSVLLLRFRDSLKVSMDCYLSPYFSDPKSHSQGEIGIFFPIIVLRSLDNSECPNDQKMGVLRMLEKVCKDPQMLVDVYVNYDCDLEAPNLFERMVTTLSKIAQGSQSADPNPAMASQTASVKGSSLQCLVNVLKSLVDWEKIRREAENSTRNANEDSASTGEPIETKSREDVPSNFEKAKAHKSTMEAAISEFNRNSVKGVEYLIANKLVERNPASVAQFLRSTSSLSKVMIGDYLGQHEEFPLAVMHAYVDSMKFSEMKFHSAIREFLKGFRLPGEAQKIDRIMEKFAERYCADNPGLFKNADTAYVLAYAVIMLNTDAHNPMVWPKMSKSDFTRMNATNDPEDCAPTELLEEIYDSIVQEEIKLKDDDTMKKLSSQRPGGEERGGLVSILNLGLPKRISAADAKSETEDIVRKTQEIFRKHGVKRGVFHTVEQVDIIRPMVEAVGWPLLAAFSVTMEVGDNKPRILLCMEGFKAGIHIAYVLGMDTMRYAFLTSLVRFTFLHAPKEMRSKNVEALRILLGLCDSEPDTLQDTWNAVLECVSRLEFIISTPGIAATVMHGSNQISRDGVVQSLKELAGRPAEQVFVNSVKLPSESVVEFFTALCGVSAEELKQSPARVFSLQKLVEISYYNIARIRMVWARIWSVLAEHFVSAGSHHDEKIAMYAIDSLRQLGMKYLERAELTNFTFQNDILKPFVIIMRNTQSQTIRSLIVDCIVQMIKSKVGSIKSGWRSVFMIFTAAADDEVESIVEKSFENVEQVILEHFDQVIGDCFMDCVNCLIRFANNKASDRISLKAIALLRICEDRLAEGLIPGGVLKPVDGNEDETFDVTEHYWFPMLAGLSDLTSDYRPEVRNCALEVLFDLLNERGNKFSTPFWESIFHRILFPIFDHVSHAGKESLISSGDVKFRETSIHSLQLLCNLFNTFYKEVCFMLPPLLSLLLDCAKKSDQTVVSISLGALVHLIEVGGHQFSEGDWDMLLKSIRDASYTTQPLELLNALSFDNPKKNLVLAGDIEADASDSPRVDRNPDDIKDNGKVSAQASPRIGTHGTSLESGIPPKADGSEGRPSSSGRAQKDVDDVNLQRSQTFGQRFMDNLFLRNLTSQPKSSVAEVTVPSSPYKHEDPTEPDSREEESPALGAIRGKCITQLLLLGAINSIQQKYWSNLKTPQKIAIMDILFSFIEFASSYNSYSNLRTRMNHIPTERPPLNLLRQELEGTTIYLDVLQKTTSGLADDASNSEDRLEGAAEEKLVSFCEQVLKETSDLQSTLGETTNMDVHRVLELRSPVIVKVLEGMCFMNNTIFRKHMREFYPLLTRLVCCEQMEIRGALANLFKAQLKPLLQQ

B1: 6×His-HopM1 1-300 (other)
chain: MISSRIGGAGGVELSRVNQQHDTVPAQTAHPNAVTAGMNPPLTPDQSGSHATESSSAGAARLNVAARHTQLLQAFKAEHGTAPVSGAPMISSRAALLIGSLLQAEPLPFEVMAEKLSPERYQLKQFQGSDLQQRLEKFAQPGQIPDKAEVGQLIKGFAQSVADQLEHFQLMHDASPATVGQHAKADKATLAVSQTALGEYAGRASKAIGEGLSNSIASLDEHISALDLTLQDAEQGNKESLHADRQALVDAKTTLVGLHADFVKSPEAKRLASVAAHTQLDNVVSDLVTARNTVGGWKGA
notes: also called HopM1-300
B1: binds.
